± gives the uncertainty stated by the source.
Assay: self-splicing fitness, log relative to wild type (ln ratio); higher = more splicing; Tetrahymena group I intron in knt gene, E. coli kanamycin selection, DiMSum; sequences stand for … in CUCUCU…GGAGGGAAAAGUUAUCAGGCAUGCACCUGGUAGCUAGUCUUUAAACCAAUAGAUUGCAUCGGUUUAAAAGGCAAGACCGUCAAAUUGCGGGAAAGGGGUCAACAGCCGUUCAGUACCAAGUCUCAGGGGAAACUUUGAGAUGGCCUUGCAAAGGGUAUGGUAAUAAGCUGACGGACAUGGUCCUAACCACGCAGCCAAGUCCUAAGUCAACAGAUCUUCUGUUGAUAUGGAUGCAGUUCACAGACUAAAUGUCGGUCGGGGAAGAUGUAUUCUUCUCAUAAGAUAUAGUCGGACCUCUCCUUAAUGGGAGCUAGCGGAUGAAGUGAUGCAACACUGGAGCCGCUGGGAACUAAUUUGUAUGCGAAAGUAUAUUGAUUAGUUUUGGAGUACUCGUGGUCG
Summary of the method: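 Colonies from six replicate transformations of E. coli BL21(DE3) were pooled and amplicon-sequenced on an Illumina HiSeq 2500. The library placed an intron with all eight P1ex-region nucleotides randomised inside the knt kanamycin-resistance gene on pET-22b(+), and cells grew overnight at 37°C or 30°C on LB agar with or without 25 μg/mL kanamycin (plus 100 μg/mL carbenicillin, 50 μM IPTG, 0.2% rhamnose). Fitness is the DiMSum error-weighted combination of wild-type-normalised replicate fold changes, kanamycin versus none.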

Sequence | self-splicing fitness (ln) (30 °C) | self-splicing fitness (ln) (37 °C)
GCAGAGCAAUAUUACGGAUC | -2.59 ± 0.34 | -1.6 ± 0.29
CUCCAGCAAUAUUACGAUAA | -3.22 ± 0.16 | -2.41 ± 0.18
GCGAAGCAAUAUUACGAGUG | -1.09 ± 0.1 | -2.13 ± 0.12
AUGGAGCAAUAUUACGCUUC | – | -1.28 ± 0.32
CCACAGCAAUAUUACGUUUA | -3.53 ± 0.15 | -2.47 ± 0.16
UGGGAGCAAUAUUACGGCGC | -1.12 ± 0.38 | –
CUUUAGCAAUAUUACGGGUU | -3.22 ± 0.34 | -0.807 ± 0.19
CUCGAGCAAUAUUACGGCGA | -3.88 ± 0.46 | -2.61 ± 0.36
GACAAGCAAUAUUACGCUUG | -4.51 ± 0.29 | -2.76 ± 0.27
ACUCAGCAAUAUUACGAUCU | -0.0985 ± 0.064 | 0.407 ± 0.08
CUGUAGCAAUAUUACGCGGU | -3.17 ± 0.23 | -2.33 ± 0.24
CCGUAGCAAUAUUACGGCAC | -3.83 ± 0.42 | -2.14 ± 0.26
CAAAAGCAAUAUUACGACGA | -0.512 ± 0.09 | -0.343 ± 0.094
GAGUAGCAAUAUUACGCAGG | -3.04 ± 0.22 | -3.26 ± 0.24
CAAUAGCAAUAUUACGAAGA | -3.96 ± 0.39 | -1.31 ± 0.2
CACGAGCAAUAUUACGUAGG | – | -1.83 ± 0.21
AAAUAGCAAUAUUACGCAUC | -3.65 ± 0.47 | -0.111 ± 0.22
CCCGAGCAAUAUUACGCUAA | -2.14 ± 0.27 | -1.99 ± 0.2
AAAUAGCAAUAUUACGGAUC | -1.18 ± 0.11 | -0.569 ± 0.15
AUUAAGCAAUAUUACGUACA | -1.2 ± 0.1 | -0.1 ± 0.13
UGAUAGCAAUAUUACGGACU | -1.17 ± 0.099 | 0.214 ± 0.18
GUGCAGCAAUAUUACGGAGU | -3.05 ± 0.12 | -2.07 ± 0.11
UAAUAGCAAUAUUACGUGGU | -4.96 ± 0.28 | -2.75 ± 0.15
UCCGAGCAAUAUUACGGUGA | -0.746 ± 0.076 | -0.0617 ± 0.095
UUCUAGCAAUAUUACGUCAC | – | -2.28 ± 0.37

Sequence | self-splicing fitness (ln) (30 °C) | self-splicing fitness (ln) (37 °C)
AUUUAGCAAUAUUACGUACC | -0.819 ± 0.45 | -1.04 ± 0.31
ACAUAGCAAUAUUACGGAUC | -3.05 ± 0.15 | -1.21 ± 0.12
ACCUAGCAAUAUUACGGCAG | -3.99 ± 0.19 | -1.16 ± 0.14
AUGAAGCAAUAUUACGUAAG | -1.05 ± 0.057 | -0.409 ± 0.083
AAAGAGCAAUAUUACGAGUU | -3 ± 0.17 | -1.92 ± 0.2
GUAAAGCAAUAUUACGUCGU | -0.978 ± 0.091 | -0.114 ± 0.14
GGCCAGCAAUAUUACGGUUU | -0.995 ± 0.067 | -0.401 ± 0.074
GUUUAGCAAUAUUACGCGGC | -1.26 ± 0.49 | –
UUUAAGCAAUAUUACGGUCG | -0.794 ± 0.067 | -0.269 ± 0.089
AUCGAGCAAUAUUACGGCCA | -1.35 ± 0.41 | -1.47 ± 0.37
CUGUAGCAAUAUUACGGUGG | -3.05 ± 0.14 | -1.49 ± 0.11
ACACAGCAAUAUUACGAAUC | -3.22 ± 0.15 | -2.63 ± 0.21
UGGCAGCAAUAUUACGUAUU | -2.73 ± 0.12 | -1.27 ± 0.11
CUCGAGCAAUAUUACGUGUA | -2.89 ± 0.12 | -3.35 ± 0.22
UGUGAGCAAUAUUACGGAGA | -3.34 ± 0.28 | -2.29 ± 0.31
CGUUAGCAAUAUUACGUAAA | -2.88 ± 0.22 | -1.88 ± 0.26
GAACAGCAAUAUUACGUGUC | -3.49 ± 0.14 | -3.22 ± 0.17
UCUCAGCAAUAUUACGACAU | -2.714 ± 0.018 | -1.49 ± 0.034
CAGAAGCAAUAUUACGUUAU | -3.44 ± 0.35 | -2.75 ± 0.28
GGGCAGCAAUAUUACGGCAA | -0.705 ± 0.14 | -0.742 ± 0.17
CCCUAGCAAUAUUACGGACU | -3.48 ± 0.3 | -2 ± 0.32
UAACAGCAAUAUUACGAAGG | -1.76 ± 0.083 | -1.78 ± 0.12
UUGGAGCAAUAUUACGUUUG | -4.04 ± 0.25 | -2.92 ± 0.28
UAGCAGCAAUAUUACGUGUC | -3.39 ± 0.15 | -2.2 ± 0.12
GUCGAGCAAUAUUACGCCGG | – | -1.99 ± 0.41

Sequence | self-splicing fitness (ln) (30 °C) | self-splicing fitness (ln) (37 °C)
UGGUAGCAAUAUUACGAUUA | -0.395 ± 0.055 | 0.0463 ± 0.066
UUGCAGCAAUAUUACGAAGC | -2.28 ± 0.3 | -0.93 ± 0.36
CAACAGCAAUAUUACGAAAC | -3.87 ± 0.2 | -2.01 ± 0.17
AAAGAGCAAUAUUACGUCUU | -2.22 ± 0.091 | -1.41 ± 0.1
AAUGAGCAAUAUUACGUAGU | -3.83 ± 0.22 | -2.22 ± 0.21
UGGCAGCAAUAUUACGCGAU | -2.67 ± 0.18 | -2.01 ± 0.21
UACAAGCAAUAUUACGGCGU | -1.14 ± 0.11 | -0.846 ± 0.098
GUUUAGCAAUAUUACGUAGG | -2.77 ± 0.13 | -0.822 ± 0.14
ACAAAGCAAUAUUACGGCAG | -1.1 ± 0.064 | -0.658 ± 0.088
GAAUAGCAAUAUUACGUGAC | -3.51 ± 0.28 | -1.43 ± 0.2
GCCAAGCAAUAUUACGGCAC | -2.04 ± 0.12 | -0.268 ± 0.12
UUCGAGCAAUAUUACGAGCU | -3.65 ± 0.43 | -2.44 ± 0.45
AAUUAGCAAUAUUACGAGAU | -2.7 ± 0.17 | -2.16 ± 0.17
GGGAAGCAAUAUUACGGCAU | -0.534 ± 0.16 | -0.344 ± 0.19
UUCCAGCAAUAUUACGAAGC | -2.59 ± 0.32 | -1.92 ± 0.26
UGGAAGCAAUAUUACGAAUU | – | -1.99 ± 0.36
CGACAGCAAUAUUACGGCCU | -1.57 ± 0.13 | -0.3 ± 0.14
CUUCAGCAAUAUUACGAUCU | -2.86 ± 0.39 | -2.88 ± 0.35
AUUAAGCAAUAUUACGAUAU | -1.2 ± 0.081 | -0.415 ± 0.096
CUAAAGCAAUAUUACGGCAC | -2.96 ± 0.22 | –
UAUGAGCAAUAUUACGUCCG | – | -2.19 ± 0.43
AUAGAGCAAUAUUACGACGA | -0.935 ± 0.093 | -0.479 ± 0.13
UCAGAGCAAUAUUACGACGA | -0.0796 ± 0.1 | -0.26 ± 0.11
GAGAAGCAAUAUUACGACGG | -3.47 ± 0.29 | -1.97 ± 0.23
GACAAGCAAUAUUACGUAGC | -1.48 ± 0.069 | -0.611 ± 0.076

Sequence | self-splicing fitness (ln) (30 °C) | self-splicing fitness (ln) (37 °C)
GUCUAGCAAUAUUACGCUAC | -2.41 ± 0.47 | -2.57 ± 0.33
AAAAAGCAAUAUUACGCGGU | -2.38 ± 0.13 | -0.538 ± 0.11
ACAUAGCAAUAUUACGGAUG | -1.77 ± 0.12 | -1.6 ± 0.14
UGAGAGCAAUAUUACGAUAC | -3.92 ± 0.46 | -1.91 ± 0.34
CGAAAGCAAUAUUACGGUUG | -0.623 ± 0.057 | -0.494 ± 0.073
CGUAAGCAAUAUUACGUUAA | -3.03 ± 0.23 | -2.47 ± 0.29
UGUCAGCAAUAUUACGCCUC | -2.62 ± 0.42 | –
CUUUAGCAAUAUUACGGAUG | -0.333 ± 0.067 | 0.313 ± 0.098
GCAUAGCAAUAUUACGCCAU | -4.39 ± 0.46 | -2.23 ± 0.28
UCACAGCAAUAUUACGCCAU | -3.28 ± 0.19 | -2.22 ± 0.18
CCGCAGCAAUAUUACGAUAA | -2 ± 0.19 | -1.2 ± 0.24
CGAUAGCAAUAUUACGAUUA | -1.59 ± 0.13 | -0.77 ± 0.15
AAUCAGCAAUAUUACGGGAU | -1.45 ± 0.08 | -1.34 ± 0.087
GGGGAGCAAUAUUACGUUCC | – | -2 ± 0.3
GUUAAGCAAUAUUACGGGCA | -0.851 ± 0.15 | -1.14 ± 0.14
CCUUAGCAAUAUUACGGCUG | -3.9 ± 0.19 | -2.39 ± 0.17
AGGUAGCAAUAUUACGGCGG | -1.955 ± 0.016 | -1.11 ± 0.034
CAUGAGCAAUAUUACGGGUG | -3.68 ± 0.19 | -2.43 ± 0.13
GUAUAGCAAUAUUACGCUCA | – | -0.615 ± 0.36
GCGAAGCAAUAUUACGGCCU | -1.4 ± 0.12 | 0.334 ± 0.16
UUCAAGCAAUAUUACGGGUG | -0.476 ± 0.045 | -0.593 ± 0.06
UAGCAGCAAUAUUACGGGUU | -3.82 ± 0.21 | -1.86 ± 0.16
ACGCAGCAAUAUUACGGAUC | -1.86 ± 0.093 | -0.813 ± 0.13
UCCCAGCAAUAUUACGGGGU | -3.87 ± 0.27 | -2.86 ± 0.22

Source: the supplement of paper PMC7877785
